Assay results: patent publication US20260176346A1

Molecular target: recombinant human VEGF (R&D Systems, 293-VE-010) (human) (UniProt P15692)
Assay: Octet HTX biosensor (BLI); positive control antibody at 10 ug/mL in 1x kinetics buffer; recombinant human VEGF in 1:2 series, 200 nM to 3.125 nM

Chain of UniProt P15692 (P15692 other isoform, or with tags, fused parts or gaps limits assumed): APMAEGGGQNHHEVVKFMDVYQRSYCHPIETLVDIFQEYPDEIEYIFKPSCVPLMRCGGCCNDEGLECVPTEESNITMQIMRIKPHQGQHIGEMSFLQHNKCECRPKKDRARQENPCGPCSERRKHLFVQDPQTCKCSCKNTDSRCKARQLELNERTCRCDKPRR

Q: Which results are given for “mouse anti-human VEGF monoclonal antibody (anti-hVEGF MmAb; R&D Systems, MAB293-100)”?
A: Kd: 229 pM; koff: 7.77e-05 s⁻¹; kon: 340000 M⁻¹ s⁻¹
